Experimental data as given in patent publication US20190276523A1.

Legend:
[1] = target: F43 scFv-Fc-CD28-gp41 expressed on 293T cells (human; HIV-1) [IgG part: P01857]; assay: flow cytometry, 293T-F43 cells stained with APC-conjugated MuG6
[2] = target: 11A scFv-Fc-CD28-gp41 expressed on 293T cells (human; HIV-1) [IgG part: P01857]; assay: flow cytometry, 293T-11A cells stained with APC-conjugated MuG6
[3] = target: F70 scFv-Fc-CD28-gp41 expressed on 293T cells (human; HIV-1) [IgG part: P01857]; assay: flow cytometry, 293T-F70 cells stained with APC-conjugated MuG6
[4] = target: D80 scFv-Fc-CD28-gp41 expressed on 293T cells (human; HIV-1) [IgG part: P01857]; assay: flow cytometry, 293T-D80 cells stained with APC-conjugated MuG6
[5] = target: F43 scFv-Fc-CD28-gp41 expressed on 293T cells (human; HIV-1) [IgG part: P01857]; assay: cell-based or functional assay
[6] = target: D80 scFv-Fc-CD28-gp41 expressed on 293T cells (human; HIV-1) [IgG part: P01857]; assay: cell-based or functional assay
[7] = target: F70 scFv-Fc-CD28-gp41 expressed on 293T cells (human; HIV-1) [IgG part: P01857]; assay: cell-based or functional assay
[8] = target: F43 scFv-Fc (human) [IgG part: P01857]; assay: Octet-Red biolayer interferometry, SA sensor tips, 2:1 model; reference pair HuG6.3 and D80 scFv-Fc

Binder	% of cells in Q2 (ZsGreen+, G6-id+) [1]	% of cells in Q3 (ZsGreen-, G6-id+) [1]	% of cells in Q3 (ZsGreen-, G6-id+) [2]	% of cells in Q2 (ZsGreen+, G6-id+) [3]	% of cells in Q3 (ZsGreen-, G6-id+) [3]	% of cells in Q2 (ZsGreen+, G6-id+) [4]	% of cells in Q3 (ZsGreen-, G6-id+) [4]	CDC, percent of target cells killed (LDH release, rabbit serum) (% of target cells killed) [5]	CDC, percent of target cells killed (LDH release, rabbit serum) (% of target cells killed) [6]	CDC, percent of target cells killed (LDH release, rabbit serum) (% of target cells killed) [7]	fold increase in binding affinity compared to D80 scFv-Fc [8]	fold slower Koff compared to D80 scFv-Fc [8]	fold slower Kon compared to D80 scFv-Fc [8]
MuG6 antibody (format in the CDC and ADCC assays not stated) (antibody, V domains shown, APC-conjugated in the flow cytometry of FIG.11C) VH: QVQLQQSGTVLARPGASVKMSCKASGYTFTSYWMHWVKQRPGQGLEWIGAVSPGNSDTSYNQKFKGKATLTAVTSTSTAYMEFSSLTNEDSAVYYCTRSRYGNNALDYWGQGTTVTVSS VL: DIELTQSPSSMSVSLGDTVNITCRASQGISSNIVWLQQKPGKSFKGLIYHGTNLEDGVPSRFSGSGSGADYSLTISSLESEDFADYYCVQYSQFPPTFGSGTKLELK	41.3%	9.11%	0.097%	44%	6.15%	43.3%	5.28%	20	20	20	–	–	–
HuG6.3 (format not stated, Octet-Red assay) (antibody, V domains shown) VH: QVQLVQSGAEVVKPGASVKVSCKASGYTFTSYWMHWVKQAPGQGLEWIGAVSPGNSDTSYNEKFKGKATLTVDKSASTAYMELSSLRSEDTAVYYCTRSRYGNNALDYWGQGTLVTVS VL: DIQLTQSPSSLSASVGDRVTITCRASQGISSNIVWLQQKPGKAPKGLIYHGTNLESGVPSRFSGSGSGTDYTLTISSLEPEDFATYYCVQYSQFPPTFGQGTKLEIK	–	–	–	–	–	–	–	–	–	–	50 fold	600 fold	3.5 fold
